US20210236667A1
Where two headings read alike, the source gives them in different places.

What was measured:
[1] = target: Human epidermal growth factor receptor (EGFR) (human) (UniProt P00533); test: flow cytometry saturation binding on MDA-MB-468 cells
[2] = target: Human epidermal growth factor receptor (EGFR) (human) (UniProt P00533); test: flow cytometry on MDA-MB-468 cells
[3] = target: Human epidermal growth factor receptor (EGFR) (human) (UniProt P00533); test: competitive radioligand binding on MDA-MB-468 cells pre-blocked with 100-fold excess of unlabeled 8709-scFv-Fc; ^225Ac-8709-scFv-Fc at 50 nM
[4] = target: Human epidermal growth factor receptor (EGFR) (human) (UniProt P00533); test: saturation radioligand binding assay on MDA-MB-468 cells
[5] = target: Human epidermal growth factor receptor (EGFR) (human) (UniProt P00533); test: immunoreactive fraction (Lindmo) assay on MDA-MB-468 cells
[6] = target: Human epidermal growth factor receptor (EGFR) (human) (UniProt P00533); test: flow cytometry on MDA-MB-468 cells; remark: listed apart in the source

Row | Binder | Kd [1] | % binding [2] | fold reduction in the binding of ^225Ac-8709-scFv-Fc to EGFR [3] | Kd [4] | immunoreactive fraction [5] | % binding [6] | fold higher KD as compared to 8709-scFv-Fc [1]
1 | 8709-scFv-Fc-PEG6-DM1 (scFv, part only; not given: scFv linker, hinge and Fc, V domains shown, not shown: another chain or arm of the molecule; a dimerising Fc or GST; small tags and cut ends, PEG6-DM1 coupled via DM1-PEG6-NHS, drug to antibody ratio 3.5; attachment sites not stated.) VH: EVQLVESGGGLVQPGGSLRLSCAASGFNLYSSSMHWVRQAPGKGLEWVASIYPYSGYTYYADSVKGRFTISADTSKNTAYLQMNSLRAEDTAVYYCARYPFGVSAYYAMDYWGQGTLVTVSS VL: DIQMTQSPSSLSASVGDRVTITCRASQSVSSAVAWYQQKPGKAPKLLIYSASSLYSGVPSRFSGSRSGTDFTLTISSLQPEDFATYYCQQSYWLITFGQGTKVEIK | 4.2 nM | > 90% | – | – | – | – | –
2 | 8709-scFv-Fc (scFv, part only; not given: scFv linker, hinge and Fc, V domains shown, not shown: another chain or arm of the molecule; a dimerising Fc or GST; small tags and cut ends) VH: EVQLVESGGGLVQPGGSLRLSCAASGFNLYSSSMHWVRQAPGKGLEWVASIYPYSGYTYYADSVKGRFTISADTSKNTAYLQMNSLRAEDTAVYYCARYPFGVSAYYAMDYWGQGTLVTVSS VL: DIQMTQSPSSLSASVGDRVTITCRASQSVSSAVAWYQQKPGKAPKLLIYSASSLYSGVPSRFSGSRSGTDFTLTISSLQPEDFATYYCQQSYWLITFGQGTKVEIK | 1.1 nM | > 90% | 23.2 fold | – | – | – | –
3 | ^225Ac-8709-scFv-Fc (scFv, part only; not given: scFv linker, hinge and Fc, V domains shown, not shown: another chain or arm of the molecule; a dimerising Fc or GST; small tags and cut ends, Macropa chelator (coupled via macropa-NCS) carrying ^225Ac; attachment sites not stated.) VH: EVQLVESGGGLVQPGGSLRLSCAASGFNLYSSSMHWVRQAPGKGLEWVASIYPYSGYTYYADSVKGRFTISADTSKNTAYLQMNSLRAEDTAVYYCARYPFGVSAYYAMDYWGQGTLVTVSS VL: DIQMTQSPSSLSASVGDRVTITCRASQSVSSAVAWYQQKPGKAPKLLIYSASSLYSGVPSRFSGSRSGTDFTLTISSLQPEDFATYYCQQSYWLITFGQGTKVEIK | – | – | – | 14.5 nM | 0.86 | – | –
4 | Macropa-8709-scFv-Fc (scFv, part only; not given: scFv linker, hinge and Fc, V domains shown, not shown: another chain or arm of the molecule; a dimerising Fc or GST; small tags and cut ends, Macropa chelator coupled via macropa-NCS, not radiolabeled; attachment sites not stated.) VH: EVQLVESGGGLVQPGGSLRLSCAASGFNLYSSSMHWVRQAPGKGLEWVASIYPYSGYTYYADSVKGRFTISADTSKNTAYLQMNSLRAEDTAVYYCARYPFGVSAYYAMDYWGQGTLVTVSS VL: DIQMTQSPSSLSASVGDRVTITCRASQSVSSAVAWYQQKPGKAPKLLIYSASSLYSGVPSRFSGSRSGTDFTLTISSLQPEDFATYYCQQSYWLITFGQGTKVEIK | 11.3 nM | > 90% | – | – | – | > 85% | 10.4 fold
